Test results reported in PMC9076272 (RSC Advances, 2019).

Target: the molecule itself
Assay: crystal structure

B1: Pseudomonas aeruginosa single-stranded DNA-binding protein (PaSSB) (natural protein, UniProt P40947 1-165, looked up)
chain: MARGVNKVILVGNVGGDPETRYMPNGNAVTNITLATSESWKDKQTGQQQERTEWHRVVFFGRLAEIAGEYLRKGSQVYVEGSLRTRKWQGQDGQDRYTTEIVVDINGNMQLLGGRPSGDDSQRAPREPMQRPQQAPQQQSRPAPQQQPAPQPAQDYDSFDDDIPF
stoichiometry N: 4
